Target: Medicago truncatula L-histidinol dehydrogenase (Medicago truncatula)
Assay: SEC; HiLoad Superdex 200 16/60; 25 mM Hepes-NaOH pH 7.5, 100 mM KCl, 50 mM NaCl, 1 mM TCEP; data not shown

Substance: Medicago truncatula L-histidinol dehydrogenase (enzyme)
- stoichiometry N: 2

— article PMC5585171
